# Read-outs that look alike come from different tables or passages of the source.
# Experiments:
# [1] = test system: embolic middle cerebral artery occlusion (eMCAO)
# Experimental: Nerinetide (7.6 mg/kg) was administered as an intravenous bolus injection either 30 minutes before, or simultaneously with, the onset of a 60-minute infusion of rt-PA (5.4 mg/kg with a 10% bolus followed by 90% over 60 minutes). […] Experimental timeline. […] Hemispheric Infarct volume measurements 24 hours after eMCAo. […] Percentage of hemispheric brain swelling 24 hours after eMCAo and (D). Neurological scores 24 hours after eMCAo. Treatments were administered intravenously at the times indicated in (A). Bars represent mean±SD, with all individual data points plotted. Significant differences (in B) and (in C) are indicated with an asterisk when compared to the control group/nerinetide alone or with a number sign when compare to the thrombolytic agent (one-way ANOVA post hoc Tukey's correction for multiple comparisons test, *P<0.01 or #P <0.01, respectively) N=12-15 animals/group. Significant differences (in D) are indicated with an asterisk when compared to the control group/nerinetide alone or with a number sign when compare to the thrombolytic agent (Kruskal-Wallis analysis of variance on ranks with a post-hoc Dunn's correction for multiple comparisons test, *P<0.01 or #P<0.01, respectively).
# To test this, male Sprague-Dawley rats (10-12 weeks old; 270-310 g; Charles River, Montreal, QC, Canada) were subjected to embolic middle cerebral artery occlusion (eMCAO), produced by the introduction of an autologous blood thrombus into the middle cerebral artery. Reperfusion was achieved by treatment with intravenous alteplase at a total dose of 5.4 mg/kg beginning at 90 minutes after ischemia onset. Alteplase was administered using the human injection protocol in which 10% of the total dose is given as a bolus, with the remainder 90% of the dose being given over a 60-minute infusion. The dose of alteplase was 6 times the human dose, in anticipation that the rat fibrinolytic system may be less sensitive to human recombinant tPA. […] Nerinetide was administered either 30 minutes prior to, or concurrently with, the start of the alteplase administration (FIG. 7A) at a dose of 7.6 mg/kg. […] Infarct volumes, hemispheric swelling and neurological scores were evaluated at 24 hours.
# [2] = cited from earlier work
# [3] = test system: Tat-NR2B9c
molecule,measurement,setting,value
alteplase [reference compound],reduction of infarction volume,[1]; alteplase alone 5.4 mg/kg given at 60 min after eMCAO,26%
same,reduction of infarction volume,[1]; alteplase alone 5.4 mg/kg given at 90 minutes after eMCAO,18%
same,mortality in pilot studies,"[1]; rat, alteplase 10x human dose, hemorrhagic conversions of strokes",unacceptable mortality rates
same,plasma half-life in human plasma,[2]; in vivo,about five
plasmin,"cleavage of nerinetide by plasmin, LC/MS of fragments after incubation in PBS at 37 C",[3],Cleavage products consistent with these sites of cleavage were observed after incubating nerinetide (18 mg/mL) with plasmin (1 mg/mL) in phosphate-buffered saline at 37 °C and analyzing the samples by LC/MS
"Plasmin: serine protease activated by thrombolytics to dissolve fibrin blood clots; cleaves nerinetide (protein, UniProt P00747 20-580; P00747 581-810, looked up, Plasmin, cleaves nerinetide) Plasmin heavy chain A: EPLDDYVNTQGASLFSVTKKQLGAGSIEECAAKCEEDEEFTCRAFQYHSKEQQCVIMAENRKSSIIIRMRDVVLFEKKVYLSECKTGNGKNYRGTMSKTKNGITCQKWSSTSPHRPRFSPATHPSEGLEENYCRNPDNDPQGPWCYTTDPEKRYDYCDILECEEECMHCSGENYDGKISKTMSGLECQAWDSQSPHAHGYIPSKFPNKNLKKNYCRNPDRELRPWCFTTDPNKRWELCDIPRCTTPPPSSGPTYQCLKGTGENYRGNVAVTVSGHTCQHWSAQTPHTHNRTPENFPCKNLDENYCRNPDGKRAPWCHTTNSQVRWEYCKIPSCDSSPVSTEQLAPTAPPELTPVVQDCYHGDGQSYRGTSSTTTTGKKCQSWSSMTPHRHQKTPENYPNAGLTMNYCRNPDADKGPWCFTTDPSVRWEYCNLKKCSGTEASVVAPPPVVLLPDVETPSEEDCMFGNGKGYRGKRATTVTGTPCQDWAAQEPHRHSIFTPETNPRAGLEKNYCRNPDGDVGGPWCYTTNPRKLYDYCDVPQCAAPSFDCGKPQVEPKKCPGR Plasmin light chain B: VVGGCVAHPHSWPWQVSLRTRFGMHFCGGTLISPEWVLTAAHCLEKSPRPSSYKVILGAHQEVNLEPHVQEIEVSRLFLEPTRKDIALLKLSSPAVITDKVIPACLPSPNYVVADRTECFITGWGETQGTFGAGLLKEAQLPVIENKVCNRYEFLNGRVQSTELCAGHLAGGTDSCQGDSGGPLVCFEKDKYILQGVTSWGLGCARPNKPGVYVRVSRFVTWIEGVMRNN",half-life in human plasma,[2]; has been reported,4 to 8 h
